The record followed here is paper PMC8318918.

Test [1] concerns the target His-tagged LigIIIα (full-length DNA ligase IIIα), co-expressed with TDP1 in insect cells (human). The experiment in a line: co-purification after co-expression.
The target in test [2] is LigIIIα co-expressed with His-tagged XRCC1 and TDP1 in insect cells (human). The test can be described thus: co-purification after co-expression.
Test [3] concerns the target His-tagged LigIIIβ full length (1–846) (human). The experiment in a line: SPR.
Another test has as its target LigIII_(170–755) (human). The test can be described thus: SEC-MALS. For orientation: In gel filtration, larger molecules generally elute earlier.
Test [4] has as its target His-tagged XRCC1, insect-cell expressed (human) (UniProt P18887). The test can be described thus: co-purification after co-expression.

For orientation: stoichiometry N means the number of molecules, sites or subunits per partner or assembly. What is called Kd is the free concentration of one partner at which half of the binding sites on the other are occupied at equilibrium, for simple one-to-one binding.

UniProt P18887, sequence (P18887 whole entry): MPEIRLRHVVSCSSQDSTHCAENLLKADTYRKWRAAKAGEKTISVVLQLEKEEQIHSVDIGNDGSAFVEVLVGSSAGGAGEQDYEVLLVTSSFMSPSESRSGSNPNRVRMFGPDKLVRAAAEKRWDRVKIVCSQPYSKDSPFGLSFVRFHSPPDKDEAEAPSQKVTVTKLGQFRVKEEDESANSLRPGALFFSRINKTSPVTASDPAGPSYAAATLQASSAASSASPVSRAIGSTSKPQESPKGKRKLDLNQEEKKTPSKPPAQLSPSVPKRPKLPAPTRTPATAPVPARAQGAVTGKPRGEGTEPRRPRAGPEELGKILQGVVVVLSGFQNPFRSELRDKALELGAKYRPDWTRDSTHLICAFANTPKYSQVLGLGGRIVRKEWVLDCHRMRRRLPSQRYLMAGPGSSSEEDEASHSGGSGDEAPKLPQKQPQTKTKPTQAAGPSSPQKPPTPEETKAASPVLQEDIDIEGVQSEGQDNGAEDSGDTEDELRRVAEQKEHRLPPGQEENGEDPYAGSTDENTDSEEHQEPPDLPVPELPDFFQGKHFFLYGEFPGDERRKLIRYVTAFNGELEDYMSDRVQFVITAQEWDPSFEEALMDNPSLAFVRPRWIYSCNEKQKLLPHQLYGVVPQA

Consider “Flag-tagged TDP1 (tyrosyl DNA phosphodiesterase 1), insect-cell expressed, phosphorylated (from UniProt Q9NUW8 1-608) (enzyme)”, for which the stoichiometry N (in test [1]; in test [2]; with LigIII_(170–755) (human)) was 1 throughout. Also, the Kd in test [3] was 5.1 nM. For the substance “LigIIIα co-expressed with His-tagged XRCC1 and TDP1 in insect cells (enzyme)”, the stoichiometry N in test [4] was determined as 1.

The substance “TDP1-S81A, insect-cell expressed, phosphorylated (from UniProt Q9NUW8 1-608) (enzyme)” gave a Kd in test [3] of 5.3 nM.

As to “TDP1-S81E, insect-cell expressed, phosphorylated (from UniProt Q9NUW8 1-608) (enzyme)”, the Kd in test [3] came out at 8.8 nM.
